The record followed here is the NTF2 design screens of Basanta et al. (2020).

This series in a line: protease stability score; higher = more stable; yeast display proteolysis, trypsin and chymotrypsin.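 Note: relative to predicted unfolded state with 0 unfolded-like and 1 meaning tenfold more protease.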
“DEDTEIALKLHRLILHFIHTGDWENFAKYLDPRTKLHVGEFNNVGMEEIRKTWKHLRLRIDMYDERRVEVIDGRLHVEGEIRSTVHIGDKELHFERDSNFILVVINGRVKRIEINIV” came in with a protease stability score of 1.47.

As to “DDHKKLVDEMIRIVLEELKTGNEETFNKLADPNVKVEWNGVDNHGREEVEEWWREYREVLGVDVIHIELKHVDPQGDKARIDGIIVETQGEKHHSFRAHIIIVVVNGRMHSIHERRR”, the protease stability score came out at 0.881.

In turn, “DEEEHEWRKVIHELLHAFMTGDWKRFLKLVDPHAKFLVDGQEMHGREVLKHYIDRIKNMRIEIRDETYDMVDGRMHSIFQLELTQGEYRHESYIEVIIKKFDGRWRVHEVDFEIR” returned a protease stability score of 2.18.

“DEDEDHVRDMIEVFVRLMITGDEDTFKNLADPHVQFHFENVKLHGRHALLEWLRRLNREFKNIRVQILVHHVEVQGEKATVHSHIVVHVGDKTEHYDTELHIIVIDGRIKTVIIKRK”: the protease stability score amounted to 1.5.

The sequence “TEEEEAAKRVFRLLLENAKTGDEDHLRELIDPNVRIHVDGRTLIGMEQFKRFWSEMRVHHWDQKSVDFVNGRVHSDTIINSHVDGQTIHIDVRIIITKIDGQWVVESFSVS” showed a protease stability score of 1.17.

For “NEDEESAERAVHLLRELIYTGDEDRMLKYADPNVKIVFNGVEMHGMDTFLRVFHRIKNLTIRRIHIDHIHLQGDKIELNVRMDTEFNGRHHDDSIHIRTLKVDGVWINHRTEYV”, the protease stability score is 1.04.

“DEDEERIREVVERFLRDWETGDEKSLKHLLDPNVRMIIDGVDIVGREEALRLMKKLVDDLGIKHVHFHRVRLDVQGDKVRSEVDGEFEVGDKHTKVHTLLILRKVDGKWIFESVHMDHK” registered a protease stability score of 2.27.

In the case of “DEDKEIAEKVAREVFHNFMTGDEDRHLELADPHTRLRVGEWENHGRDQVKRMFERQRRRFDHLERIEIKDVRIYDGVVHLHVEVHGVINGVSTTLEMRVYFVVVNGQLKRSSIHIH”, the protease stability score is 0.373.

“NEKEEESKRFIELFMELIVTGNEEVLYKLADPTVQWRADVDGQEINLHGWEHIHDEINKFPNITLELEEREIQGDKVDIRTRLHIGDKTRDTRVIIIVINGRVKQIHIEIR”: the protease stability score came out at 2.28.

“SEIEELVERAEKEHLRTLMTGDWRLFEHNLDPNTKLELDYDGRKIERHGRRHMSHYLKELFKSLGIKHMHLEDSHIQGDKLELHLHFHIGDKTRNVIIIVRKVNGQWIVETLIVHEH” yielded a protease stability score of 0.829.

“SESEEFLEKAYRLIEESLRTGDFREMLSNIDPNARFRYGNFDFHGRENLEFMLKELSKRIDHFHNSHIRRVNVINGRMHLHTSMHVEYDGKKEEVETEWVLLKVDGQWLIKEVTVI” displayed a protease stability score of 2.51.

“DEEEEEMRKMIDEILKDQATGDEDRLKKLLDPNMRSEINGKDLHGREIVTETLAHLFRFLGIKHVHLNDYRIQGDKVEIYGELEINGQKHTNKIHAEKVNGKWVISEMRLH”: the protease stability score was determined as 1.43.

Regarding “DEQQEDAEHATELLLRLLETGDWSTFEKLMDPHVRVDIGDKHLHGREMSSHFIKELVERYPNLRISFKDMRVQGEFIHVIGEVNFNGQRFHSEWVVLKVDGRWTINSVRIE”, the protease stability score stood at 1.28.

Regarding “DEDEEQAEKMIKIWIHDMATGNEESLVRLADPRVRSEVDGVQLHGRESLRKFLHDEWRDLGVDRIQVHVRRYHVFDGRLHLDGEVIVNGQDKTMHIVLIKVDGRWHLKSVHFR”, the protease stability score turned out to be 2.14.

“DEEERIAEEMISDWIHVMRTGNEELLKDMADPHVKVYIDGRDFHGMEFLVREYRQYDHNDSELRHFTVQGNYVFSEQMLKLTVNGQTITWEVHYKSLKVDGRWIVTLILLK” came in with a protease stability score of 1.32.

In the case of “DEEEEESHEATEMILYAHKTGDFDLWEKLADPHVRLDVNGVHVHGREEYVRIMRHIHKNWGVQRFHVEFHDLELQGEKVRVRLRSNFNGRHHTETIIIEKINGRWYLKTRRIT”, the protease stability score is 1.42.

Sequence “SEEEQHAKHMSHLISHVLKTGDEERWKELMDPHTRLIVGDKEFHGREALHELKRRVDHMKDVLIHSVEVQGNKADFDVEVHVKVDGRHERLKMRWIVDKVNGRWVQSEIIIH” returned a protease stability score of 1.65.

The sequence “SDEDEEMRELMERIHHAIKTGDEDLLHHMFDPNARVDIDGQIWHGREWEHFFLRKFKGLRIEIKRVHVQGDKIHFRGLDEINGVKFDSHLIIIIVNGKTHAIEIDHR” displayed a protease stability score of 1.53.

For the sequence “SEEEEHLDHALKNIIDLIRTGDENLQRELFDPRVRLVVGDKEFHGWETVVHRLREMRFKDFHVRRERIVGDKVHIDVEVNGNVDGRDDVMRMEIRIDKVNGQWRTKNVILN”, the protease stability score amounted to 2.05.

As for “DEDEEDAQEILKRFVHANETGDWRILEELIDPNARYEQGDKHLVGREEVLRRMIELGIKHTYIHSFSVQGDKLRLDTSIQFENHRVKTHLILNKINGRWVIKSIHIH”, the protease stability score turned out to be 1.91.

“DEDKHLSQLAIELLHRFLWTGDEHDLEHLMDPNAKLEQGDKTLHGRELVLEFFDHLVEEAGITKVDHKLRRIETYGNKVNIHGDLHVNGRTIRIEIIAVKINGKWVVRSVRIK”: the protease stability score was determined as 1.21.

“DEREEMSRHMINLWNRHLETGDEDRISKLADPHVKVTNEDEEHVGRESAERFVRLMGFDHVHLHDIHIQGNKVISTVEIRIDGQTYQSDVVALKVDGKWKVKNVHIH” registered a protease stability score of 0.711.

Consider “SELEEKTEKWARLFWLLYKTGDWETLEKLLDPHVRSEINGKEEHGRENMIRMLVDLLRLLGIDHIELHHIEFVNGKVIIHLSLHAENHSSELIIEVNIINGKIESIRIEVR”, for which the protease stability score came out at 1.09.

“DELKTDFENAIRLYEHATKTGDEHEIRKLLDPHVRVDINGREHHGMEHYSDLLHEFLKRLGADHIQFEFKDSHLQGNKLHLHGIIHVHVGDKTHTIDSSVIYEKVDGRWIISSVWYR” showed a protease stability score of 1.01.

The sequence “SEDEQESRDIIKLLDKSIETGDEKTATRLADPHMRLDIDGVDLHGREEFVRWVIFVVREMRSRVEHTRVRMYDGRAEVDTTLLFIFEGRELRVESHIIMLKIDGRWIIHEVRIH” yielded a protease stability score of 1.26.

On to “SEDDRDANNMREILQHLWFTGNEEEFLRLLDPDTLFHVNGQQKVGRERVEELLHHLLEKLGADHEEIHDWEVRLQGDKLDIHVHIRLIIGDKEFRIHIDFHIYKIDGRWRIHSVKLEIK”, for which the protease stability score is 2.1.

As for “NEEEELLHRLAKRFIELFLTGDWEVMEKLFDPHVKIDVNGRESHGREQVWHLLMHLLHELRIHHILIRSFDVFDGRAHSSVEVNGEFNGKRDLTEAEVVIVSVDGKMKSVSIKLR”, the protease stability score was 1.23.

In turn, “DEDTKRVEELMELWIEIWRTGDFKMLHHLLDPNVLLHVDIGDKHINVHGREEFTRFLEEELRKVKNAREEINDEKLVGDKVILDYSIHVNGRTLRVHLEIILIDGRMKVSRVKVK” showed a protease stability score of 2.14.

Sequence “SEDEEYSHFASELFLNIFETGDWKTLLHYMDPNTRLVVNGRHHHGWKFMVEFLLHARIHTTRLKDIRTVNGKVDVDGRVDGHINGQKEERVFIINITKVNGVWILESVIIE” returned a protease stability score of 0.986.

“SEEEKHMHKMHELRNKRTKTGDEHWFEKLADPHYRVEIGDKELIGWEYLVRVRREFGIDHLETVHIDSTEIQGEKVIEHVTIHGEFDGVRNDLKVELIVIKFNGRWVMHSTKVK”: the protease stability score came out at 0.761.

“SEEEHYMLKVAKLAVRNYFTGNEHVLDELFDPHTRQEVNGVENHGRETVRDFLREHLKHMRFHDFKIRDFKWQGDKAHTETETDVEIDGQRIPLRMEIIIIIIDGVPKSISLRLG” gave a protease stability score of 1.05.

“SEEEELARQVLELWIHWYQTGDEESFRKNIDPHTRFDINGKHLHGREHVSKHLHDRAREMRIHDVFIKDVRLQGEKARMDGVIDGTIGDKRHEFKVEVTVQSINGRIDHLEFRFR” gave a protease stability score of 1.18.

With “EEDEEYLRKHYTDLKHALETGDEDRIMELFDPHVRIDDEDHNLHGREELFRWLHDLGIDHHELRIDDFKIDGDKVSIDGHLRVIVNGRDIHFRTIIRIKKVNGQWRLTHLEIR”, the protease stability score is 1.94.

As for “DEDTNIEKMASQRIFHDIMTGDFQSLWEMFDPNARLIQGDWHSHGRENIIIYYMELVEKLGVTNVRFRLEDEDSQGDKVIIHSSLNINGRHFKLDIHAVKINGRWFIREVDVRLH”, the protease stability score amounted to 1.4.

“DEDRKHWETLLKIAFHLFRTGDEEKWERMFDPHARLHINGKDIHGREDIVHFLQEHLDHLWIEDVKVERMSVYNGVLHVDIRIHYRQGDKVYDVESSIDNIVIDGKSHRIRFDFH”: the protease stability score was found to be 1.26.

Sequence “SEEEEKLKKILELLRHRILTGDEEFYSRLIDPNARVNIDGKTTHGREEMEHILRELNEDYGVKHHTVRSTEIFDGVNWIRGEFRVNGRSRTVEIIIWVYNGRLKSSEFRFD” yielded a protease stability score of 1.39.

“DETEEMARLFNEEVRHSWKTGNEEHIKRLIDPHAKVHIGDKELHGRERATETIRKLGVKHLEIDDIHIIDGRVHVDGTLDVDGQSFRVEIILSKVNGRWLNEEIRIH” yielded a protease stability score of -0.344.

In turn, “DEEERLEREIVDHLWTNWYTGDEERMEELADPNVRLEINIGDKHIRLHGRHELLRHLHEWKERFKNIKIRLHDYRVIDGRVHLHVVYRFDGRHKTMHIELYIVNGRIKEIIHRES” had a protease stability score of 1.66.

“SEEEKETEHVLRLFLEIFHTGDWKTLHELFDPHVRLNVGDKHWIGRENVVEQIRHFLERFKNARFHIHRIHIVGDFNDVRTEITINGRTHDTRLWLQVIDGRIESMEIKMN” returned a protease stability score of 2.44.

In turn, “DEIEETIKHLMEEWETSMQTGDEDRIKELLDPHARLEIGEWEFIGRERVAHFLSRADHSEYRIRRIRMIGDKIDIRLEVRLHVNGREIRTETHLIILKINGRWFFKSTHIT” showed a protease stability score of 1.62.

Take “SEDHHETQRALELLVTFLRTGDEHTLERLMDPDTRSIIDGVELHGREDMKEVLEWLVKQADHLESVHVRYLNVQGDKAQIHVELRGRFNGKHSIHEVHITTVKINGKWLITEVEFR”: the protease stability score is 1.93.

“DERQHEARKVFLEWIRREVTGDFERVRHLADPNMRMDINGVEHHGRDRMSELIFRQLEEMRIEIHIRHYHVIGEKVHANIEMRVRQGDWDETRTIEIIFVVIDGRLHDYTVHIL” displayed a protease stability score of 0.643.

In the case of “SEEKRDSHQAIHLFIKNRVTGNWKDLYKNVDPHARLEIGDKHFHGRELFVRLMLELGVDHFDIESVDIQGDFIHIKGQIDVNGRTLDVELVAWKYNGRWYEHSVIIK”, the protease stability score was determined as 1.16.

In the case of “DEEDHHLRQIFEELLRALVTGDEEFLEQMADPRTRFILIIDGRRIEWHGREEFFRHFHEWRLRNYRITHLESYNGRIRVEGEVDENFNGKERHTKTHHTIIVINGRLHSIVLNIH”, the protease stability score came to 1.72.

The sequence “DEIDERLHFLMKRVLHLWETGDWDMWMNYADPHVRHEIIIGDKRYSLHGREEYAEELLRHHRHIRLHTIHITHIDVVNGRVELNGRVNGDINGQHVDVELYVELKVVDGRIESERMEFR” gave a protease stability score of 0.412.

In the case of “DKEERYLEIAVNVIRHQLETGNEEDLLRNIDPDTRLFIDGRLFHGWETAHYLLRKVKNARIEIRSVHLIGDKIHMDTELIVNGVLRETEITARKVDGQWTWHHIRIE”, the protease stability score was 1.39.

“HEDEHYMQRIAEDILKSFLTGDFDHIYRMADPHVKLIVGDKESIGRDDMETMLRIWLEILGADHLEVKDLKTRLVGDKIEVNVDNRIQIGDKLINVKIEIIFEKVNGRWKVSRITLKLR” had a protease stability score of 1.5.
